B1: RHOBTB3 (parent)
chain: QLQSMPSRELASMNLDIVDLLKKA
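Also: lentivirally expressed fusions sorted by FACS into six bins by GFP to DsRed ratio, PSI derived from sequencing read proportions per bin multiplied by bin number.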

The data set covers variants of B1. Description: protein stability index of a GFP-peptide fusion (GPS, HEK-293T) (PSI 1-6); higher = more stable. The conditions noted are these: c terminus: a fixed tail appended.
Turning to QLQSMPSRELISMNLDIVDLLKKA, the protein stability index turned out to be 2.87. For QLQSMPSRELGSMNLDIVDLLKKA, the protein stability index is 3.19.

Regarding QLQSMPSRELHSMNLDIVDLLKKA, the protein stability index turned out to be 3.21. The figure for QLQSMPSRELASYNLDIVDLLKKA is 3.17; for QLQSMPSRELASCNLDIVDLLKKA it is 3.74. On to QLQSMPSRELASKNLDIVDLLKKA, for which the protein stability index is 3.8.

As for QLQSMPSRELASLNLDIVDLLKKA, the protein stability index stood at 3.52. Consider QLQSMPSRELASENLDIVDLLKKA, for which the protein stability index stood at 4.19. The figure for QLQSMPSRELASINLDIVDLLKKA is 2.39; for QLQSMPSRELASSNLDIVDLLKKA it is 3.35; for QLQSMPSRELASMNLDIVDNLKKA it is 3.71. The result for QLQSMPSRELASMNLDIVDGLKKA reads 4.62; that for QLQSMPSRELASMNLDIVDWLKKA, 3.51. The figure for QLQSMPSRELASMNLDIVDSLKKA is 4.06; for QLQSMPSRELASMNLDIVDTLKKA it is 3.96. On to QLQSMPSRELASMNLDIVDDLKKA, for which the protein stability index was 4.68. The result for QLQSMPSRELASMNLDIVDRLKKA reads 3.94.

For the variant QLQSMPSRELASMNLDIVDCLKKA, the protein stability index was determined as 3.86.

With QLQSMPSRELASMNLDIVDKLKKA, the protein stability index amounted to 4.33.

Take QLQSMPSRELASMNLDMVDLLKKA: the protein stability index is 3.39. The result for QLQSMPSRELASMNLDHVDLLKKA reads 3.94. In the case of QLQSMPSRELASMNLDQVDLLKKA, the protein stability index amounted to 4.55. The figure for QLQSMPSRELASMNLDSVDLLKKA is 4.37; for QLQSMPSRELASMNLDVVDLLKKA it is 3.89.

In the case of QLQSMPSRELASMNLDWVDLLKKA, the protein stability index was 3.45. Turning to QLQSMPSRELASMNLDFVDLLKKA, the protein stability index is 3.63. Turning to QLQSMPSRELASMNLDPVDLLKKA, the protein stability index was 3.39. The figure for QLQSMPSRELASMNLDYVDLLKKA is 3.74; for QLQSMPSRELASMNNDIVDLLKKA it is 3.45; for QLQSMPSRELASMNADIVDLLKKA it is 3.67.

In the case of QLQSMPSRELASMNQDIVDLLKKA, the protein stability index is 3.72. The result for QLQSMPSRELASMNVDIVDLLKKA reads 3.35; that for QLQSMPSRELASMNCDIVDLLKKA, 4.27. The result for QLQSMPSRELASMNTDIVDLLKKA reads 4.17; that for QLQSMPSRELASMNDDIVDLLKKA, 3.23; that for QLQSMPSRELASMNHDIVDLLKKA, 3.98. The figure for QLQSMPSRELASMNGDIVDLLKKA is 3.99; for QLQSMPSRELASMNLDIVDLLKMA it is 2.32. In the case of QLQSMPSRELASMNLDIVDLLKDA, the protein stability index came to 4.03. The figure for QLQSMPSRELASMNLDIVDLLKCA is 2.57. The figure for QLQSMPSRELASMNLDIVDLLKHA is 3.05; for QLQSMPSRELASMNLDIVDLLKFA it is 2.33; for QLQSMPSRELASMNLDIVDLLKNA it is 3.97. The figure for QLQSMPSRELASMNLDIVDLLKGA is 3.16; for QLQSMPSRELASMNLDIVDLLKTA it is 3.4; for QLQSMPSRELASMNLDIVDLLKAA it is 2.92. Regarding QLQSNPSRELASMNLDIVDLLKKA, the protein stability index worked out at 2.78. The result for QLQSFPSRELASMNLDIVDLLKKA reads 3.33; that for QLQSHPSRELASMNLDIVDLLKKA, 3.43; that for QLQSQPSRELASMNLDIVDLLKKA, 3.69. The result for QLQSCPSRELASMNLDIVDLLKKA reads 3.23; that for QLQSGPSRELASMNLDIVDLLKKA, 2.58. The figure for QLQSDPSRELASMNLDIVDLLKKA is 3.78; for QLQSAPSRELASMNLDIVDLLKKA it is 3.04. For QLQSKPSRELASMNLDIVDLLKKA, the protein stability index stood at 4.06. The figure for YLQSMPSRELASMNLDIVDLLKKA is 2.98.

Consider MLQSMPSRELASMNLDIVDLLKKA, for which the protein stability index was 3.38. The result for VLQSMPSRELASMNLDIVDLLKKA reads 2.98. The figure for NLQSMPSRELASMNLDIVDLLKKA is 3.65; for ILQSMPSRELASMNLDIVDLLKKA it is 2.71. The figure for CLQSMPSRELASMNLDIVDLLKKA is 2.86; for KLQSMPSRELASMNLDIVDLLKKA it is 4.12.

With QLQSMPSRELASMNLVIVDLLKKA, the protein stability index stood at 2.22. Take QLQSMPSRELASMNLRIVDLLKKA: the protein stability index came out at 2.5.

QLQSMPSRELASMNLTIVDLLKKA: the protein stability index was 3.05. With QLQSMPSRELASMNLYIVDLLKKA, the protein stability index worked out at 2.62. The result for QLQSMPSRELASMNLKIVDLLKKA reads 2.91; that for QLQSMPSRELASMNLQIVDLLKKA, 3.57. The figure for QLQSMPSRELASMNLLIVDLLKKA is 2.63. Consider QLQSMPSRELASMDLDIVDLLKKA, for which the protein stability index was determined as 3.92. The figure for QLQSMPSRELASMFLDIVDLLKKA is 1.79. Regarding QLQSMPSRELASMGLDIVDLLKKA, the protein stability index amounted to 3.68. QLQSMPSRELASMYLDIVDLLKKA: the protein stability index turned out to be 2.68. The result for QLQSMPSRELASMPLDIVDLLKKA reads 3.78. Take QLQSMPSRELASMWLDIVDLLKKA: the protein stability index came out at 2.37.

QLQSMPSRELASMCLDIVDLLKKA: the protein stability index is 2.16. For the variant QLQSMPSRELASMKLDIVDLLKKA, the protein stability index came out at 3.75. The figure for QLQSMPSRELASMNLDIQDLLKKA is 3.89; for QLQSMPSRELASMNLDIRDLLKKA it is 2.73; for QLQSMPSRELASMNLDIEDLLKKA it is 4.19. On to QLQSMPSRELASMNLDIDDLLKKA, for which the protein stability index was determined as 3.96. The figure for QLQSMPSRELASMNLDIIDLLKKA is 3.28; for QLQSMPSRELASMNLDIMDLLKKA it is 3.41; for QLQSMPSRELASMNLDIYDLLKKA it is 2.6.

Turning to QLQSMPSRELASMNLDIVLLLKKA, the protein stability index was 1.48.

Take QLQSMPSRELASMNLDIVNLLKKA: the protein stability index worked out at 3.15. The figure for QLQSMPSRELASMNLDIVFLLKKA is 2.01; for QLQSMPSRELASMNLDIVILLKKA it is 1.86. The figure for QLQSMPSRELASMNLDIVSLLKKA is 3.45; for QLQSMPSRELASMNLDIVMLLKKA it is 2.09.

For the variant QLQSMPSRELASMNLDIVCLLKKA, the protein stability index came out at 2.96. The result for QLQSMPSRELASMNLDIVELLKKA reads 3.37.

On to QLQSMPSRELASMNLDIVQLLKKA, for which the protein stability index stood at 3.58. Take QLQSMPSRELASMNLDIVALLKKA: the protein stability index worked out at 3.

For the origin of these results see the supplement of paper PMC10567573.
